The source of these data is US20170355775A1 (ELANCO TIERGESUNDHEIT, published 2017).

The test deals with T1, canine CD20 ECD2 peptide (canine).
T1 peptide: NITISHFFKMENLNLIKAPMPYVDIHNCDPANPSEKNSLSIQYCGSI
Nature of the test: ELISA on canine CD20 ECD2 peptide. (In general: An ELISA detects its analyte on a solid surface through an enzyme-linked reagent.)

B1: chimeric anti-canine CD20 antibody 1E4-cIgGB (antibody, V domains shown)
VH: EVQLVESGGGLVKPGGSLKLSCAASGFTFSDYGMLWVRQAPEKGLEWIAYISSGSSTIYYADRVKGRFTISRDNAKNTLFLQMTSLRSEDTAMYYCSTGTFAYWGQGTPVTVSS
VL: DVVMTQNPLSLPVSLGDQASISCRSSQSLIYNNGNTYLHWYRQKPGQSPKLLIYKVSNRFSGVPDRFSGSGSGTDFTLKISRVEAEDLGVYFCSQSTHVPFTFGSGTKLEIKR
notes: also called unmodified (WT) 1E4-cIgGB; 1E4-cIGB
On to B1, for which the binding result was “binds”.

B2: 1E4-cIgGB with N33 to E substitution in VL (antibody, V domains shown)
VH: EVQLVESGGGLVKPGGSLKLSCAASGFTFSDYGMLWVRQAPEKGLEWIAYISSGSSTIYYADRVKGRFTISRDNAKNTLFLQMTSLRSEDTAMYYCSTGTFAYWGQGTPVTVSS
VL: DVVMTQNPLSLPVSLGDQASISCRSSQSLIYNEGNTYLHWYRQKPGQSPKLLIYKVSNRFSGVPDRFSGSGSGTDFTLKISRVEAEDLGVYFCSQSTHVPFTFGSGTKLEIKR
notes: Whole antibody (heavy plus light chains) made 'using the above procedures'
For the molecule B2, the binding result was “binds”.

B3: 1E4-cIgGB with G34 to L substitution in VL (antibody, V domains shown)
VH: EVQLVESGGGLVKPGGSLKLSCAASGFTFSDYGMLWVRQAPEKGLEWIAYISSGSSTIYYADRVKGRFTISRDNAKNTLFLQMTSLRSEDTAMYYCSTGTFAYWGQGTPVTVSS
VL: DVVMTQNPLSLPVSLGDQASISCRSSQSLIYNNLNTYLHWYRQKPGQSPKLLIYKVSNRFSGVPDRFSGSGSGTDFTLKISRVEAEDLGVYFCSQSTHVPFTFGSGTKLEIKR
notes: as for B2
For B3, the binding result is “binds”.

B4: 1E4-cIgGB with N33 to P substitution in VL (antibody, V domains shown)
VH: EVQLVESGGGLVKPGGSLKLSCAASGFTFSDYGMLWVRQAPEKGLEWIAYISSGSSTIYYADRVKGRFTISRDNAKNTLFLQMTSLRSEDTAMYYCSTGTFAYWGQGTPVTVSS
VL: DVVMTQNPLSLPVSLGDQASISCRSSQSLIYNPGNTYLHWYRQKPGQSPKLLIYKVSNRFSGVPDRFSGSGSGTDFTLKISRVEAEDLGVYFCSQSTHVPFTFGSGTKLEIKR
notes: as for B2
As for B4, the binding result is on record as “binds”.

B5: 1E4-cIgGB with N33 to R substitution in VL (antibody, V domains shown)
VH: EVQLVESGGGLVKPGGSLKLSCAASGFTFSDYGMLWVRQAPEKGLEWIAYISSGSSTIYYADRVKGRFTISRDNAKNTLFLQMTSLRSEDTAMYYCSTGTFAYWGQGTPVTVSS
VL: DVVMTQNPLSLPVSLGDQASISCRSSQSLIYNRGNTYLHWYRQKPGQSPKLLIYKVSNRFSGVPDRFSGSGSGTDFTLKISRVEAEDLGVYFCSQSTHVPFTFGSGTKLEIKR
notes: as for B2
Take B5: the binding result is listed as “binds”.

B6: 1E4-cIgGB with G34 to V substitution in VL (antibody, V domains shown)
VH: EVQLVESGGGLVKPGGSLKLSCAASGFTFSDYGMLWVRQAPEKGLEWIAYISSGSSTIYYADRVKGRFTISRDNAKNTLFLQMTSLRSEDTAMYYCSTGTFAYWGQGTPVTVSS
VL: DVVMTQNPLSLPVSLGDQASISCRSSQSLIYNNVNTYLHWYRQKPGQSPKLLIYKVSNRFSGVPDRFSGSGSGTDFTLKISRVEAEDLGVYFCSQSTHVPFTFGSGTKLEIKR
notes: as for B2
With B6, the binding result is listed as “binds”.

B7: 1E4-cIgGB with G34 to H substitution in VL (antibody, V domains shown)
VH: EVQLVESGGGLVKPGGSLKLSCAASGFTFSDYGMLWVRQAPEKGLEWIAYISSGSSTIYYADRVKGRFTISRDNAKNTLFLQMTSLRSEDTAMYYCSTGTFAYWGQGTPVTVSS
VL: DVVMTQNPLSLPVSLGDQASISCRSSQSLIYNNHNTYLHWYRQKPGQSPKLLIYKVSNRFSGVPDRFSGSGSGTDFTLKISRVEAEDLGVYFCSQSTHVPFTFGSGTKLEIKR
notes: as for B2
As for B7, the binding result was “binds”.

B8: 1E4-cIgGB with N33 to V substitution in VL (antibody, V domains shown)
VH: EVQLVESGGGLVKPGGSLKLSCAASGFTFSDYGMLWVRQAPEKGLEWIAYISSGSSTIYYADRVKGRFTISRDNAKNTLFLQMTSLRSEDTAMYYCSTGTFAYWGQGTPVTVSS
VL: DVVMTQNPLSLPVSLGDQASISCRSSQSLIYNVGNTYLHWYRQKPGQSPKLLIYKVSNRFSGVPDRFSGSGSGTDFTLKISRVEAEDLGVYFCSQSTHVPFTFGSGTKLEIKR
notes: as for B2
With B8, the binding result was “binds”.

B9: 1E4-cIgGB with N33 to A substitution in VL (antibody, V domains shown)
VH: EVQLVESGGGLVKPGGSLKLSCAASGFTFSDYGMLWVRQAPEKGLEWIAYISSGSSTIYYADRVKGRFTISRDNAKNTLFLQMTSLRSEDTAMYYCSTGTFAYWGQGTPVTVSS
VL: DVVMTQNPLSLPVSLGDQASISCRSSQSLIYNAGNTYLHWYRQKPGQSPKLLIYKVSNRFSGVPDRFSGSGSGTDFTLKISRVEAEDLGVYFCSQSTHVPFTFGSGTKLEIKR
notes: as for B2
For B9, the binding result is “binds”.

B10: 1E4-cIgGB with N33 to L substitution in VL (antibody, V domains shown)
VH: EVQLVESGGGLVKPGGSLKLSCAASGFTFSDYGMLWVRQAPEKGLEWIAYISSGSSTIYYADRVKGRFTISRDNAKNTLFLQMTSLRSEDTAMYYCSTGTFAYWGQGTPVTVSS
VL: DVVMTQNPLSLPVSLGDQASISCRSSQSLIYNLGNTYLHWYRQKPGQSPKLLIYKVSNRFSGVPDRFSGSGSGTDFTLKISRVEAEDLGVYFCSQSTHVPFTFGSGTKLEIKR
notes: as for B2
With B10, the binding result is listed as “binds”.

B11: 1E4-cIgGB with N33 to F substitution in VL (antibody, V domains shown)
VH: EVQLVESGGGLVKPGGSLKLSCAASGFTFSDYGMLWVRQAPEKGLEWIAYISSGSSTIYYADRVKGRFTISRDNAKNTLFLQMTSLRSEDTAMYYCSTGTFAYWGQGTPVTVSS
VL: DVVMTQNPLSLPVSLGDQASISCRSSQSLIYNFGNTYLHWYRQKPGQSPKLLIYKVSNRFSGVPDRFSGSGSGTDFTLKISRVEAEDLGVYFCSQSTHVPFTFGSGTKLEIKR
notes: as for B2
B11: the binding result was “binds”.

B12: 1E4-cIgGB with G34 to P substitution in VL (antibody, V domains shown)
VH: EVQLVESGGGLVKPGGSLKLSCAASGFTFSDYGMLWVRQAPEKGLEWIAYISSGSSTIYYADRVKGRFTISRDNAKNTLFLQMTSLRSEDTAMYYCSTGTFAYWGQGTPVTVSS
VL: DVVMTQNPLSLPVSLGDQASISCRSSQSLIYNNPNTYLHWYRQKPGQSPKLLIYKVSNRFSGVPDRFSGSGSGTDFTLKISRVEAEDLGVYFCSQSTHVPFTFGSGTKLEIKR
notes: as for B2
On to B12, for which the binding result is recorded as “binds”.

B13: 1E4-cIgGB with N33 to H substitution in VL (antibody, V domains shown)
VH: EVQLVESGGGLVKPGGSLKLSCAASGFTFSDYGMLWVRQAPEKGLEWIAYISSGSSTIYYADRVKGRFTISRDNAKNTLFLQMTSLRSEDTAMYYCSTGTFAYWGQGTPVTVSS
VL: DVVMTQNPLSLPVSLGDQASISCRSSQSLIYNHGNTYLHWYRQKPGQSPKLLIYKVSNRFSGVPDRFSGSGSGTDFTLKISRVEAEDLGVYFCSQSTHVPFTFGSGTKLEIKR
notes: as for B2
For B13, the binding result is on record as “binds”.

B14: 1E4-cIgGB with N33 to Q substitution in VL (antibody, V domains shown)
VH: EVQLVESGGGLVKPGGSLKLSCAASGFTFSDYGMLWVRQAPEKGLEWIAYISSGSSTIYYADRVKGRFTISRDNAKNTLFLQMTSLRSEDTAMYYCSTGTFAYWGQGTPVTVSS
VL: DVVMTQNPLSLPVSLGDQASISCRSSQSLIYNQGNTYLHWYRQKPGQSPKLLIYKVSNRFSGVPDRFSGSGSGTDFTLKISRVEAEDLGVYFCSQSTHVPFTFGSGTKLEIKR
notes: as for B2
On to B14, for which the binding result was “binds”.

B15: 1E4-cIgGB with G34 to F substitution in VL (antibody, V domains shown)
VH: EVQLVESGGGLVKPGGSLKLSCAASGFTFSDYGMLWVRQAPEKGLEWIAYISSGSSTIYYADRVKGRFTISRDNAKNTLFLQMTSLRSEDTAMYYCSTGTFAYWGQGTPVTVSS
VL: DVVMTQNPLSLPVSLGDQASISCRSSQSLIYNNFNTYLHWYRQKPGQSPKLLIYKVSNRFSGVPDRFSGSGSGTDFTLKISRVEAEDLGVYFCSQSTHVPFTFGSGTKLEIKR
notes: as for B2
For the molecule B15, the binding result was “binds”.

B16: 1E4-cIgGB with G34 to E substitution in VL (antibody, V domains shown)
VH: EVQLVESGGGLVKPGGSLKLSCAASGFTFSDYGMLWVRQAPEKGLEWIAYISSGSSTIYYADRVKGRFTISRDNAKNTLFLQMTSLRSEDTAMYYCSTGTFAYWGQGTPVTVSS
VL: DVVMTQNPLSLPVSLGDQASISCRSSQSLIYNNENTYLHWYRQKPGQSPKLLIYKVSNRFSGVPDRFSGSGSGTDFTLKISRVEAEDLGVYFCSQSTHVPFTFGSGTKLEIKR
notes: as for B2
For the molecule B16, the binding result is “binds”.

B17: 1E4-cIgGB with G34 to Y substitution in VL (antibody, V domains shown)
VH: EVQLVESGGGLVKPGGSLKLSCAASGFTFSDYGMLWVRQAPEKGLEWIAYISSGSSTIYYADRVKGRFTISRDNAKNTLFLQMTSLRSEDTAMYYCSTGTFAYWGQGTPVTVSS
VL: DVVMTQNPLSLPVSLGDQASISCRSSQSLIYNNYNTYLHWYRQKPGQSPKLLIYKVSNRFSGVPDRFSGSGSGTDFTLKISRVEAEDLGVYFCSQSTHVPFTFGSGTKLEIKR
notes: as for B2
In the case of B17, the binding result is on record as “binds”.

B18: 1E4-cIgGB with G34 to I substitution in VL (antibody, V domains shown)
VH: EVQLVESGGGLVKPGGSLKLSCAASGFTFSDYGMLWVRQAPEKGLEWIAYISSGSSTIYYADRVKGRFTISRDNAKNTLFLQMTSLRSEDTAMYYCSTGTFAYWGQGTPVTVSS
VL: DVVMTQNPLSLPVSLGDQASISCRSSQSLIYNNINTYLHWYRQKPGQSPKLLIYKVSNRFSGVPDRFSGSGSGTDFTLKISRVEAEDLGVYFCSQSTHVPFTFGSGTKLEIKR
notes: as for B2
For B18, the binding result is “binds”.

B19: 1E4-cIgGB with G34 to R substitution in VL (antibody, V domains shown)
VH: EVQLVESGGGLVKPGGSLKLSCAASGFTFSDYGMLWVRQAPEKGLEWIAYISSGSSTIYYADRVKGRFTISRDNAKNTLFLQMTSLRSEDTAMYYCSTGTFAYWGQGTPVTVSS
VL: DVVMTQNPLSLPVSLGDQASISCRSSQSLIYNNRNTYLHWYRQKPGQSPKLLIYKVSNRFSGVPDRFSGSGSGTDFTLKISRVEAEDLGVYFCSQSTHVPFTFGSGTKLEIKR
notes: as for B2
Consider B19, for which the binding result is given as “binds”.

B20: 1E4-cIgGB with N33 to I substitution in VL (antibody, V domains shown)
VH: EVQLVESGGGLVKPGGSLKLSCAASGFTFSDYGMLWVRQAPEKGLEWIAYISSGSSTIYYADRVKGRFTISRDNAKNTLFLQMTSLRSEDTAMYYCSTGTFAYWGQGTPVTVSS
VL: DVVMTQNPLSLPVSLGDQASISCRSSQSLIYNIGNTYLHWYRQKPGQSPKLLIYKVSNRFSGVPDRFSGSGSGTDFTLKISRVEAEDLGVYFCSQSTHVPFTFGSGTKLEIKR
notes: as for B2
For B20, the binding result was “binds”.

B21: 1E4-cIgGB with N33 to T substitution in VL (antibody, V domains shown)
VH: EVQLVESGGGLVKPGGSLKLSCAASGFTFSDYGMLWVRQAPEKGLEWIAYISSGSSTIYYADRVKGRFTISRDNAKNTLFLQMTSLRSEDTAMYYCSTGTFAYWGQGTPVTVSS
VL: DVVMTQNPLSLPVSLGDQASISCRSSQSLIYNTGNTYLHWYRQKPGQSPKLLIYKVSNRFSGVPDRFSGSGSGTDFTLKISRVEAEDLGVYFCSQSTHVPFTFGSGTKLEIKR
notes: as for B2
As for B21, the binding result is “binds”.
